A short description of data set [1]: Population PK/PD model of axatilimab: post-hoc exposures and pediatric simulation. The arrangement: species or system human. The note with it: five participants aged 12 to 17 years in cGVHD studies vs adults of same dose groups. The text has this: In addition, the developed population PK/PD model for axatilimab was extrapolated to simulate PK in pediatric patients aged 12 to 17 years, using standard allometric exponents of 0.75 for clearance-related parameters and 1.0 for volume of distribution-related parameters.

In data set [2] the test system is subjects with cGVHD. Nature of the data set: Clinical study of axatilimab given as a single agent to subjects with cGVHD after at least two prior lines of systemic therapy.
Data set [3] has as its system subjects with cGVHD. The note with it: human, in vivo.

The text below walks through data of patent US20250325664A1, “COMBINATION THERAPY WITH AN ANTI-COLONY STIMULATING FACTOR 1 RECEPTOR ANTIBODY AND A JAK INHIBITOR” (Incyte Corporation, priority 2024, published 2025).

With “axatilimab: humanized IgG4 monoclonal antibody that binds CSF-1R; heavy chain SEQ ID NO:2, light chain SEQ ID NO:3”, in data set [1], the “post-hoc PK exposures in participants aged 12 to 17 years” value is reported as “comparable to those observed in adult participants from the same dose groups”. Further, the results for the “participants with treatment-emergent adverse events (TEAEs)” value in data set [2] (0.3 mg/kg Q2W), in data set [2] (1 mg/kg Q2W) and in data set [2] (3 mg/kg Q4W) were 6%, 22% and 18%, respectively. In data set [2] (0.3 mg/kg Q2W), the “reported CMV infections” value is recorded as “no CMV infections were reported”. The “participants with reduction in modified Lee Symptom Scale (mLSS) score ≤7 points” value in data set [2] (0.3 mg/kg Q2W cohort, first 6 cycles) worked out at 55%. The “frequency of treatment-related AEs, any grade and ≥Grade 3” value in data set [2] (0.3 mg/kg Q2W vs 1 mg/kg Q2W vs 3 mg/kg Q4W) was “showed dose dependency, with lowest incidence at 0.3 mg/kg Q2W”. For the same substance, the “objective response rate (ORR), primary endpoint” value in data set [2] (0.3 mg/kg Q2W, first 6 cycles) was found to be 73.8%; in data set [2] (1 mg/kg Q2W, first 6 cycles), 66.7%; in data set [2] (3 mg/kg Q4W, first 6 cycles) it was 50%. Further, the “most common TEAEs” value in data set [2] (all dose cohorts) is “elevated aspartate aminotransferase/alanine aminotransferase (AST/ALT), creatine phosphokinase (CPK), lipase, amylase, and lactate dehydrogenase levels as well as periorbital edema”. Moreover, the “reported CMV infections (number)” value in data set [2] (higher dose cohorts) was 2. Besides, the severity of infections result in data set [3] is given as “Most infections were mild”.
